Laboratory results taken from PMC10201424, “Biochemical characterisation of Mer3 helicase interactions and the protection of meiotic recombination intermediates” (Nucleic Acids Research, 2022).

What was measured:
MBP-Mlh1;MBP-Mlh2 = target: T1, MBP-Mlh1;MBP-Mlh2 (Saccharomyces cerevisiae;Saccharomyces …, UniProt P38920;Q07980 1-769;1-695, |); experiment: EMSA; robust binding; EMSA: 25 mM HEPES pH 7.5, 0.1 ug/ul BSA, 60 mM NaCl, 10 nM DNA, 20 min at 30 C; 0.8% agarose in 1x TAE; Mer3 37.5-300 nM, Mlh1-Mlh2 20-150 nM; conditions: protein: recombinant;recombinant; tags: N-terminal 6xHis-MBP;N-terminal 6xHis-MBP; copies: 1;1; label: 5'-FAM on strand 1; synthetic D-loop of 4 annealed oligos
T1 sequence 1: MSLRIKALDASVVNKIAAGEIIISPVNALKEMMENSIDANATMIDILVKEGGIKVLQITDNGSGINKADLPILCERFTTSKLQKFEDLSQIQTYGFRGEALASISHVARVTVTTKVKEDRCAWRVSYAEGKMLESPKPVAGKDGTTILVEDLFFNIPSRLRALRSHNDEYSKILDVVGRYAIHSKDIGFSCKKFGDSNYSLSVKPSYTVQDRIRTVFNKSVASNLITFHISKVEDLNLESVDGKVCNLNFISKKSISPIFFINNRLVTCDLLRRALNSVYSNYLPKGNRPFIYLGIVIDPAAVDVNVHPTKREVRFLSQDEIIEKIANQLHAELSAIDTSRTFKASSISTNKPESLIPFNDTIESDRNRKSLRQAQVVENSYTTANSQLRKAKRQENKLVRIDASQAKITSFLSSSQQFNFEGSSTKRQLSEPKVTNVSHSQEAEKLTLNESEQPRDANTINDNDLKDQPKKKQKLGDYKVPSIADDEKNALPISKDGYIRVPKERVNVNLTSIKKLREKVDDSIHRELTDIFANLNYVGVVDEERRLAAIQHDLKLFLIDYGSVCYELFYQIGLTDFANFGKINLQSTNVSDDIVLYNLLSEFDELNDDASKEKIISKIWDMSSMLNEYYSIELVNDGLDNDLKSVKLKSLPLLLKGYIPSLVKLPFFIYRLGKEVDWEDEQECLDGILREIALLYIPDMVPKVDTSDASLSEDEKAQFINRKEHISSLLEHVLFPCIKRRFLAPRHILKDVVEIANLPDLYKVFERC
T1 sequence 2: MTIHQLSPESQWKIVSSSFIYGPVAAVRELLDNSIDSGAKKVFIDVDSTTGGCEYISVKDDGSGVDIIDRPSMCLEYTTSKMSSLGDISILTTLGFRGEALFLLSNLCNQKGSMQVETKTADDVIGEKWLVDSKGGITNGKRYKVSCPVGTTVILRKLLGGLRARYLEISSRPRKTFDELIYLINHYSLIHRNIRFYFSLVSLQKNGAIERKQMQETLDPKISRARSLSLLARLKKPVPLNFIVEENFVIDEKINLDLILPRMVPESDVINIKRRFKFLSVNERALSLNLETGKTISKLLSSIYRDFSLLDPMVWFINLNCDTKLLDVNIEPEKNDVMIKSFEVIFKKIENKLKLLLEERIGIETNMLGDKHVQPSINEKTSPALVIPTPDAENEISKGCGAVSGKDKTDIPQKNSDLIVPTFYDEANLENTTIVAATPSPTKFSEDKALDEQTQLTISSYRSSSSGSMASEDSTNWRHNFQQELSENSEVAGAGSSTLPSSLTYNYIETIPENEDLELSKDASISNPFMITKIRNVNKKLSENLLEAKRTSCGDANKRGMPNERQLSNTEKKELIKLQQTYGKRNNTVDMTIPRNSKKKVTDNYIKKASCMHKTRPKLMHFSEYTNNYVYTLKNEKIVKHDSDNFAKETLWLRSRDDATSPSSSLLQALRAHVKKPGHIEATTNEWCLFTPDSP

His-Mlh1;Strep-Mlh2 = target: T2, His-Mlh1;Strep-Mlh2 (Saccharomyces cerevisiae;Saccharomyces …, UniProt P38920;Q07980 1-769;1-695, |); experiment: as above; conditions: protein: recombinant;recombinant; tags: N-terminal 6xHis;N-terminal Twin-StrepII; copies: 1;1; label: 5'-FAM on strand 1; synthetic D-loop of 4 annealed oligos
T2 sequence 1: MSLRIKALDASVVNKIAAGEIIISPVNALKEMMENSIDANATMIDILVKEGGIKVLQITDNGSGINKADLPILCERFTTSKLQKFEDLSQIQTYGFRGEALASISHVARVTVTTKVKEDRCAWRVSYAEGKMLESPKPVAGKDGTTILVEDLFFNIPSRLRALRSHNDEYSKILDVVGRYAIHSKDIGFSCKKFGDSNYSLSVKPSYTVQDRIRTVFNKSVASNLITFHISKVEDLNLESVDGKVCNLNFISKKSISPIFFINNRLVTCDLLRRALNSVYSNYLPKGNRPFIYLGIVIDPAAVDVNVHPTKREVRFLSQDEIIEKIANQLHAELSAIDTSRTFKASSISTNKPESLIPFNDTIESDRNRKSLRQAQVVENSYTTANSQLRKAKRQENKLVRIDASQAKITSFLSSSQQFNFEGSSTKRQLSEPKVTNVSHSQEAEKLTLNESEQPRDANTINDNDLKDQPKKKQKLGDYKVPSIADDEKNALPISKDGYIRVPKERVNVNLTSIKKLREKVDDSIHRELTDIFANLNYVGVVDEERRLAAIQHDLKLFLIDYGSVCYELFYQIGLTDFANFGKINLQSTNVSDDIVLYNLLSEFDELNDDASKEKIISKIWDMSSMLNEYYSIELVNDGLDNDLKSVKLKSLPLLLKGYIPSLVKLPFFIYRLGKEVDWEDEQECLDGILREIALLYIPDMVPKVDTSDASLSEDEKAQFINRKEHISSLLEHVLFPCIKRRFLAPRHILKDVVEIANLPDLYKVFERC
T2 sequence 2: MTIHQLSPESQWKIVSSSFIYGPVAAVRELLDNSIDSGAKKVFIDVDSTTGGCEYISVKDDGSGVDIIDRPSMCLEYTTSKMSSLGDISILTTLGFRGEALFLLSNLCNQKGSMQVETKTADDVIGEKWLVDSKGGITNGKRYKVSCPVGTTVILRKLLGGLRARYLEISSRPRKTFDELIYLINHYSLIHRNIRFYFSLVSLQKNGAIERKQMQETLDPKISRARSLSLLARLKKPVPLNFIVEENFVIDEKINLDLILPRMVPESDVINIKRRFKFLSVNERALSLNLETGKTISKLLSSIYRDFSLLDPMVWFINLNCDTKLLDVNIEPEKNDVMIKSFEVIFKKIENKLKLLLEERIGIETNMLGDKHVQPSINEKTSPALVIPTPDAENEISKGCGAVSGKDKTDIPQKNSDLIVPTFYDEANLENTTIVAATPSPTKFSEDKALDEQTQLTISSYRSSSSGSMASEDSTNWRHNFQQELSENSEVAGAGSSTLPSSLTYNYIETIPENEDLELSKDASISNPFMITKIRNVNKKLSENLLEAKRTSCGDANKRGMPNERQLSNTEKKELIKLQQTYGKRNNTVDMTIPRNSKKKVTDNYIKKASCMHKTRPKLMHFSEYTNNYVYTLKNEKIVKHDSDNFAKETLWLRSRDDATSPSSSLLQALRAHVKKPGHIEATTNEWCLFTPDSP

Mer3 = target: T3, Mer3 (Saccharomyces cerevisiae, UniProt P51979 1-1187); experiment: EMSA; no Mg or ATP; high affinity; EMSA: 25 mM HEPES pH 7.5, 0.1 ug/ul BSA, 60 mM NaCl, 10 nM DNA, 20 min at 30 C; 0.8% agarose in 1x TAE; Mer3 37.5-300 nM, Mlh1-Mlh2 20-150 nM; conditions: protein: recombinant; tags: C-terminal Twin-StrepII; label: 5'-FAM on strand 1; synthetic D-loop of 4 annealed oligos
T3 sequence: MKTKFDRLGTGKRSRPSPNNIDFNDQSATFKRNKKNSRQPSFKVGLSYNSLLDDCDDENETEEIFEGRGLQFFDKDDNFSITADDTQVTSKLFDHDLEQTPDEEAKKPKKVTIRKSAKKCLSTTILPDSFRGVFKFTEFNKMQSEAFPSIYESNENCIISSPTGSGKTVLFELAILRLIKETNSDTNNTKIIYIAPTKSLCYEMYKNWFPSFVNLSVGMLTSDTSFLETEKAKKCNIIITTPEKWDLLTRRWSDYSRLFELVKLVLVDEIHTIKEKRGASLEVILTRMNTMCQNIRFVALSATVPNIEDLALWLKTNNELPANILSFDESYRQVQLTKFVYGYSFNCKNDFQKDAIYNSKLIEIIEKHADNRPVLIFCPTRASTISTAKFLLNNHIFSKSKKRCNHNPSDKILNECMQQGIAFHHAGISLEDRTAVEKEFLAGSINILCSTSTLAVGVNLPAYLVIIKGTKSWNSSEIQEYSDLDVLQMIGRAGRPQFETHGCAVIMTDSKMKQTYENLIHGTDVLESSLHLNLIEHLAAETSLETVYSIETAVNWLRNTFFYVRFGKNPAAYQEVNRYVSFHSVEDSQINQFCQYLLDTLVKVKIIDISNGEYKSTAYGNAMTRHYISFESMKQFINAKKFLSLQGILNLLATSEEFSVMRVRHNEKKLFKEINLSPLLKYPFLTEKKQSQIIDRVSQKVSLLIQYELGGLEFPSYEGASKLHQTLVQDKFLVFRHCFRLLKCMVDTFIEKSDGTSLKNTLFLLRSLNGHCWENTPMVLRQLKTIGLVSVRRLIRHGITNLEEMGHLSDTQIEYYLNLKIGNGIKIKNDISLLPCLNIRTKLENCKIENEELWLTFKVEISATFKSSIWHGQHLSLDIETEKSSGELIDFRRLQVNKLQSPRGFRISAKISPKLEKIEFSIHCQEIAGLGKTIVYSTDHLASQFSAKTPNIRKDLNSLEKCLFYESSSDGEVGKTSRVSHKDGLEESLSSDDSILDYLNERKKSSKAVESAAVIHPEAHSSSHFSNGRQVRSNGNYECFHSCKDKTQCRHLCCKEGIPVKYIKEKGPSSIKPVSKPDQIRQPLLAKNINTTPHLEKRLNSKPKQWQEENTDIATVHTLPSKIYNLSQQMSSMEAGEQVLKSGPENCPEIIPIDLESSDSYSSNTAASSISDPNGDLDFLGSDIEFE

Measured: binding result

B1: D-loop (1253-T, 315, 320, X12-3SC) (mixed)
DNA 1: GGGTCAACGTGGGCAAAGATGTCCTAGCAATGTAATCGTCTATGACGTT
DNA 2: AACGTCATAGACGATGATCCGATGCATATCCGCCTGCCCACGTTGACCC
DNA 3: GCGATAGTCTCTAGACAGCATGTCCTAGCAATACATTGCTAGGACATCTT
DNA 4: TTGCTAGGACATGCTGTCTAGAGACTATCGC
binds: all assays above
